According to article PMC5815892 (Clinical cancer research : an official journal of the …, 2017):

Assays:
[1] = target: purified fibulin-3 (human) (Homo sapiens (Human)., UniProt Q12805); test: SPR
[2] = target: T1, free DSL-like peptide from human fibulin-3 (Thr25-Glu47) (Homo sapiens (Human).); test: ELISA
T1 chain: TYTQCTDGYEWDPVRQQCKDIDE

Sequence of purified fibulin-3 (human) (Q12805 18-493): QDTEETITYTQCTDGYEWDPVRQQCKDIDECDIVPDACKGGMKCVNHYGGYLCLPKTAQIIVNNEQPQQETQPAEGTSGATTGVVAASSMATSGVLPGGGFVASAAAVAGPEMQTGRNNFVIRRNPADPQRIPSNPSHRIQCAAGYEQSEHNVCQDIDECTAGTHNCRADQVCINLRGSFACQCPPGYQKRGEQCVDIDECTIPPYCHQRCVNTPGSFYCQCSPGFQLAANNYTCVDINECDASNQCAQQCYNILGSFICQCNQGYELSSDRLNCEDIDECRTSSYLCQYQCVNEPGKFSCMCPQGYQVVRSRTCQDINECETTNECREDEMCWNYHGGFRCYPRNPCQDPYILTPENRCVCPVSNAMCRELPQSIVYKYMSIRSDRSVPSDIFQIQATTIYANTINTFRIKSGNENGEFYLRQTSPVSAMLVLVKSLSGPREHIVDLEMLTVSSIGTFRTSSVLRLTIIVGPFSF

B1: mAb428.2 (anti-fibulin-3 clone mAb428.2.3C11.H11.G3) (antibody, V domains shown)
VH: QIQLVQSGPELKKPGETVKISCKASGYSFTTYGMSWVKQAPGKGLKWMGWINTYSGVPTYADDFKGRFAFFLETSASTAYLQINNLKNEDTATYFCARWVDYWGQGTTLTVSS
VL: DIKMTQSPSSMYASLGERVTITCKASQDIKSYLSWHQQKPWKSPKTLIYYATSLADGVPSRFSGSGSGQDYSLTISSLESDDTATYYCLQHGKSPYTFGGGTKLEIK
With B1 the Kd [1] was 5 ± 1 nM and the binding result [2] was “binds”.
